In patent US20200024330A1:

Tests used:
Assay in all cases: cell-based or functional assay
[1] = target: HIV-1 92TH021 envelope glycoprotein (Env) on pseudovirus (HIV-1)
[2] = target: HIV-1 CMU02 envelope glycoprotein (Env) on pseudovirus (HIV-1)
[3] = target: HIV-1 92UG024 envelope glycoprotein (Env) on pseudovirus (HIV-1)
[4] = target: aMLV envelope protein on pseudovirus (negative control virus)
[5] = target: HIV-1 MGRM-D-018 envelope glycoprotein (Env) on pseudovirus (HIV-1)
[6] = target: HIV-1 MGRM-D-001 envelope glycoprotein (Env) on pseudovirus (HIV-1)
[7] = target: HIV-1 MGRM-AG-005 envelope glycoprotein (Env) on pseudovirus (HIV-1)
[8] = target: HIV-1 92UG005 envelope glycoprotein (Env) on pseudovirus (HIV-1)
[9] = target: HIV-1 Env of isolate AC10 (HIV-1)
[10] = target: HIV-1 Env of isolate THRO.18 (HIV-1)
[11] = target: MuLV envelope protein (control pseudovirus) (MuLV)
[12] = target: HIV-1 Env of isolate ZM233 (HIV-1)
[13] = target: HIV-1 JR-FL Env E168K (pseudovirus) (HIV-1 JR-FL)
[14] = target: HIV-1 92RW020 Env (pseudovirus) (HIV-1 92RW020)
[15] = target: HIV-1 Env of isolate ZM214 (HIV-1)
[16] = target: HIV-1 Env of isolate TR0.11 (HIV-1)
[17] = target: HIV-1 ADA Env (pseudovirus) (HIV-1 ADA)
[18] = target: HIV-1 Env of isolate REJ04541 (HIV-1)
[19] = target: HIV-1 JR-CSF Env Y318A (pseudovirus) (HIV-1 JR-CSF) (UniProt P20871)
[20] = target: HIV-1 Env of isolate CAAN (HIV-1)
[21] = target: HIV-1 Env of isolate ZM249 (HIV-1)
[22] = target: HIV-1 Env of isolate PVO.4 (HIV-1)
[23] = target: HIV-1 Env of isolate CAP45 (HIV-1)
[24] = target: HIV-1 Env of isolate DU156 (HIV-1)
[25] = target: HIV-1 Env of isolate DU422 (HIV-1)
[26] = target: HIV-1 JR-CSF Env I309A (pseudovirus) (HIV-1 JR-CSF) (UniProt P20871)
[27] = target: HIV-1 JR-CSF Env, wild type (pseudovirus) (HIV-1 JR-CSF) (UniProt P20871)
[28] = target: HIV-1 Env of isolate Du172 (HIV-1)

Row | Binder | IC50, pseudovirus neutralization [1] [µg/mL] | IC50, pseudovirus neutralization [2] [µg/mL] | IC50, pseudovirus neutralization [3] [µg/mL] | IC50, pseudovirus neutralization [4] [µg/mL] | IC50, pseudovirus neutralization [5] [µg/mL] | IC50, pseudovirus neutralization [6] [µg/mL] | IC50, pseudovirus neutralization [7] [µg/mL] | IC50, pseudovirus neutralization [8] [µg/mL] | IC50, pseudovirus neutralization (TZM-bl) [9] [µg/mL] | IC50, pseudovirus neutralization (TZM-bl) [10] [µg/mL] | IC50, pseudovirus neutralization (TZM-bl), control virus [11] [µg/mL] | IC50, pseudovirus neutralization (TZM-bl) [12] [µg/mL] | IC50 (ug/ml), neutralization [13] [µg/mL] | IC50 (ug/ml), neutralization [14] [µg/mL] | IC50, pseudovirus neutralization (TZM-bl) [15] [µg/mL] | IC50, pseudovirus neutralization (TZM-bl) [16] [µg/mL] | IC50 (ug/ml), neutralization [17] [µg/mL] | IC50, pseudovirus neutralization (TZM-bl) [18] [µg/mL] | IC50 (ug/ml), neutralization [19] [µg/mL] | IC50, pseudovirus neutralization (TZM-bl) [20] [µg/mL] | other results
1 | PGT-125 monoclonal antibody (antibody, V domains shown) VH: QSQLQESGPRLVEASETLSLTCNVSGESTGACTYFWGWVRQAPGKGLEWIGSLSHCQSFWGSGWTFHNPSLKSRLTISLDTPKNQVFLKLTSLTAADTATYYCARFDGEVLVYNHWPKPAWVDLWGRGIPVTVSS VL: QSALTQPPSASGSPGQSITISCNGTATNFVSWYQQFPDKAPKLIIFGVDKRPPGVPDRFSGSRSGTTASLTVSRLQTDDEAVYYCGSLVGNWDVIFGGGTTLTVL | 0.0066 | > 10 | > 10 | > 10 | 0.0382 | 2.31 | > 10 | > 10 |  |  |  |  |  |  |  |  |  |  |  |  | 
2 | PGT-136 monoclonal antibody (antibody, V domains shown) VH: QLQLQESGPGLVKPSETLSLTCTVSGGSMRGTDWGENDFHYGWIRQSSAKGLEWIGSIHWRGRTTHYKTSFRSRATLSIDTSNNRFSLTFSFVTAADTAVYYCARHKYHDIFRVVPVAGWFDPWGQGLLVTVSS VL: EIVMTQSPPTLSVSPGETATLSCRASQNVKNNLAWYQLKPGQAPRLLIFDASSRAGGIPDRFSGSGYGTDFTLTVNSVQSEDFGDYFCQQYEEWPRTFGQGTKVDIK | > 10 | > 10 | 0.0915 | > 10 | > 10 | > 10 | > 10 | > 10 |  |  |  |  |  |  |  |  |  |  |  |  | 
3 | PGT-126 monoclonal antibody (antibody, V domains shown) VH: QPQLQESGPGLVEASETLSLTCTVSGDSTAACDYFWGWVRQPPGKGLEWIGGLSHCAGYYNTGWTYHNPSLKSRLTISLDTPKNQVFLKLNSVTAADTAIYYCARFDGEVLVYHDWPKPAWVDLWGRGTLVTVSS VL: QSALTQPPSASGSPGQSISISCTGTSNRFVSWYQQHPGKAPKLVIYGVNKRPSGVPDRFSGSKSGNTASLTVSGLQTDDEAVYYCSSLVGNWDVIFGGGTKLTVL | 0.115 | > 10 | > 10 | > 10 | 0.0093 | 0.0639 | 1.35 | 0.0181 |  |  |  |  |  |  |  |  |  |  |  |  | 
4 | PGT-135 monoclonal antibody (antibody, V domains shown) VH: QLQMQESGPGLVKPSETLSLSCTVSGDSIRGGEWGDKDYHWGWVRHSAGKGLEWIGSIHWRGTTHYKESLRRRVSMSIDTSRNWFSLRLASVTAADTAVYFCARHRHHDVFMLVPIAGWFDVWGPGVQVTVSS VL: EIVMTQSPDTLSVSPGETVTLSCRASQNINKNLAWYQYKPGQSPRLVIFETYSKIAAFPARFVASGSGTEFTLTINNMQSEDVAVYYCQQYEEWPRTFGQGTKVDIK | > 10 | > 10 | 0.0139 | > 10 | 0.0433 | > 10 | > 10 | > 10 |  |  |  |  |  |  |  |  |  |  |  |  | 
5 | PGT-123 monoclonal antibody (antibody, V domains shown) VH: QLHLQESGPGLVKPPETLSLTCSVSGASINDAYWSWIRQSPGKRPEWVGYVHHSGDTNYNPSLKRRVTFSLDTAKNEVSLKLVDLTAADSATYFCARALHGKRIYGIVALGELFTYFYMDVWGKGTAVTVSS VL: SSMSVSPGETAKISCGKESIGSRAVQWYQQKPGQPPSLIIYNNQDRPAGVPERFSASPDFRPGTTATLTITNVDAEDEADYYCHIYDARGGTNWVFDRGTTLTVL | > 10 | > 10 | > 10 | > 10 | 0.0047 | 0.215 | 0.104 | 2.49 |  |  |  |  |  |  |  |  |  |  |  |  | 
6 | 1503_H05 (PG16) (TCN-119) (antibody, V domains shown) VH: QEKLVESGGGVVQPGGSLRLSCLASGFTFHKYGMHWVRQAPGKGLEWVALISDDGMRKYHSDSMWGRVTISRDNSKNTLYLQFSSLKVEDTAMFFCAREAGGPIWHDDVKYYDFNDGYYNYHYMDVWGKGTIVTVSS VL: QSALTQPASVSGSPGQTITISCNGTRSDVGGFDSVSWYQQSPGKAPKVMVFDVSHRPSGISNRFSGSKSGNTASLTISGLHIEDEGDYFCSSLTDRSHRIFGGGTKVTVLG |  |  |  |  |  |  |  |  | < 0.01 | 4.12 | > 25 | < 0.01 | 0.002 | 0.02 | > 25 | 4.3 | 0.003 | 0.22 | > 1 | 13.5 | IC50, pseudovirus neutralization (TZM-bl) [21]: < 0.01 µg/mL; IC50, pseudovirus neutralization (TZM-bl) [22]: 11 µg/mL; IC50, pseudovirus neutralization (TZM-bl) [23]: < 0.01 µg/mL; IC50, pseudovirus neutralization (TZM-bl) [24]: < 0.01 µg/mL; IC50, pseudovirus neutralization (TZM-bl) [25]: 0.71 µg/mL; IC50 (ug/ml), neutralization [26]: > 1 µg/mL; IC50 (ug/ml), neutralization [27]: 0.001 µg/mL; IC50, pseudovirus neutralization (TZM-bl) [28]: < 0.01 µg/mL
7 | 1469_M23 (PG16) (TCN-118) (antibody, V domains shown) VH: QEKLVESGGGVVQPGGSLRLSCLASGFTFHKYGMHWVRQAPGKGLEWVALISDDGMRKYHSDSMWGRVTISRDNSKNTLYLQFSSLKVEDTAMFFCAREAGGPIWHDDVKYYDFNDGYYNYHYMDVWGKGTTVTVSS VL: QSALTQPASVSGSPGQTITISCNGTRSDVGGFDSVSWYQQSPGRAPKVMVFDVSHRPSGISNRFSGSKSGNTASLTISGLHIEDEGDYFCSSLTDRSHRIFGGGTKLTVLG |  |  |  |  |  |  |  |  | < 0.01 | 7.01 | > 25 | < 0.01 | 0.005 | 0.05 | > 25 | 7.52 | 0.005 | 0.39 | > 1 | 17.7 | IC50, pseudovirus neutralization (TZM-bl) [21]: < 0.01 µg/mL; IC50, pseudovirus neutralization (TZM-bl) [22]: 21.2 µg/mL; IC50, pseudovirus neutralization (TZM-bl) [23]: < 0.01 µg/mL; IC50, pseudovirus neutralization (TZM-bl) [24]: < 0.01 µg/mL; IC50, pseudovirus neutralization (TZM-bl) [25]: 0.97 µg/mL; IC50 (ug/ml), neutralization [26]: > 1 µg/mL; IC50 (ug/ml), neutralization [27]: 0.002 µg/mL; IC50, pseudovirus neutralization (TZM-bl) [28]: < 0.01 µg/mL
8 | 1456_A12 (PG16) (TCN-117) (antibody, V domains shown) VH: HEQLVEAGGGVVQPGGSLRLSCLASGFTFHKYGMHWVRQAPGKGLEWVALISDDGMRKYHSDSMWGRVTISRDNSKNTLYLQFSSLRVEDTAMFFCAREAGGPIWHDDVKYYDFNDGYYNYHYMDVWGKGTKVTVSS VL: QSALTQPASVSGSPGQTITISCNGTSRDVGGFDSVSWYQQSPGKAPKVMVFDVSHRPSGMSNRFSGSKSGNTASLTISGLHIEDEGDYFCSSLTDRSHRIFGGGTKLTVLG |  |  |  |  |  |  |  |  | < 0.01 | 2.08 | > 25 | < 0.01 | 0.003 | 0.05 | > 25 | 3.05 | 0.005 | < 0.01 | > 1 | 10.6 | IC50, pseudovirus neutralization (TZM-bl) [21]: < 0.01 µg/mL; IC50, pseudovirus neutralization (TZM-bl) [22]: 10.4 µg/mL; IC50, pseudovirus neutralization (TZM-bl) [23]: < 0.01 µg/mL; IC50, pseudovirus neutralization (TZM-bl) [24]: < 0.01 µg/mL; IC50, pseudovirus neutralization (TZM-bl) [25]: 0.36 µg/mL; IC50 (ug/ml), neutralization [26]: > 1 µg/mL; IC50 (ug/ml), neutralization [27]: 0.001 µg/mL; IC50, pseudovirus neutralization (TZM-bl) [28]: < 0.01 µg/mL
9 | PGT-130 monoclonal antibody (antibody, V domains shown) VH: QVQLQESGPGLVKPAETLSLTCSVSGESINTGHYYWGWVRQVPGKGLEWIGHIHYTTAVLHNPSLKSRLTIKIYTLRNQITLRLSNVTAADTAVYHCVRSGGDILYYYEWQKPHWFSPWGPGIHVTVSS VL: QSALTQPPSASGSLGQSVTISCNGTSSDIGGWNFVSWYQQFPGRAPRLIIFEVNKRPSGVPGRFSGSKSGNSASLTVSGLQSDDEGQYFCSSLFGRWDVVFGGGTKLTVL | 0.0082 | > 10 | > 10 | > 10 | 0.0378 | > 10 | 0.947 | 0.474 |  |  |  |  |  |  |  |  |  |  |  |  | 
